Reference: patent publication US20160083466A1 (Regeneron, published 2016)

T1: human IL-25 receptor (IL-17RA/IL-17RB) on HEK293/NFκB-luc/hIL17RA/hIL17RB/hAct1 cells (human, UniProt Q96F46 33-866; Q9NRM6 18-502)
T1 sequence (looked up) 1: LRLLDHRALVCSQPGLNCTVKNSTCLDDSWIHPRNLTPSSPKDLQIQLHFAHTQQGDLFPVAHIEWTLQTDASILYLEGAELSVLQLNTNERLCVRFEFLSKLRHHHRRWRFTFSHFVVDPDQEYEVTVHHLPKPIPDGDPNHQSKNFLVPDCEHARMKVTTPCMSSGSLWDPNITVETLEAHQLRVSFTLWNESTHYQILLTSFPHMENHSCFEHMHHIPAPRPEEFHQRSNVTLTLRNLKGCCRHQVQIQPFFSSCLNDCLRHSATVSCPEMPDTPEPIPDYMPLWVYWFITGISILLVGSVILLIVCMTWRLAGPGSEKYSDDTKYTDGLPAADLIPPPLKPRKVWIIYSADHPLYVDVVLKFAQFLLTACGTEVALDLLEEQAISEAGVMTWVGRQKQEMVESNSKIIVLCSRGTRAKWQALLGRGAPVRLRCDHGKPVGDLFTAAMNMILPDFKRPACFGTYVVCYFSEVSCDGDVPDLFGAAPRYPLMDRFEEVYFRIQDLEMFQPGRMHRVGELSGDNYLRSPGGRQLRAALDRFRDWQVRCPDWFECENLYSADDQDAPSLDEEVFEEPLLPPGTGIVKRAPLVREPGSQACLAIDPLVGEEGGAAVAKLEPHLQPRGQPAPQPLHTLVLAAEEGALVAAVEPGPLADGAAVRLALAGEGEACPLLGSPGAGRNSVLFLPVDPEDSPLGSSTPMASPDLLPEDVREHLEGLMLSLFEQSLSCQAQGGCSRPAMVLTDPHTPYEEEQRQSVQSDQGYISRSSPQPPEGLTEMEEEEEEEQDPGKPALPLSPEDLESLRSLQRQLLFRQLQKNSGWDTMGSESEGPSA
T1 sequence (looked up) 2: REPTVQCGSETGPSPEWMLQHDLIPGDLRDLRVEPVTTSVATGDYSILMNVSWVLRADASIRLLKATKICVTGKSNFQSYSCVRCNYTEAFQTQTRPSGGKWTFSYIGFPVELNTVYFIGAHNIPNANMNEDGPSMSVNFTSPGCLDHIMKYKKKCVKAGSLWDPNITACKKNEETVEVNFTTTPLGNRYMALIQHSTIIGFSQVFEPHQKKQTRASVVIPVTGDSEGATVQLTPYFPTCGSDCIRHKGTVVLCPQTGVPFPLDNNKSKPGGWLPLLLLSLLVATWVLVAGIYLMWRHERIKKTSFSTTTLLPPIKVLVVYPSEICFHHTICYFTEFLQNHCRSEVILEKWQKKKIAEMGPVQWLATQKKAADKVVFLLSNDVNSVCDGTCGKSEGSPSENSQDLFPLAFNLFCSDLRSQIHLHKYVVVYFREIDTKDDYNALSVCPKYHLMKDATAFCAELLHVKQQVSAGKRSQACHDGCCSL


Biological target: T1, human IL-25 receptor (IL-17RA/IL-17RB) …
Assay: cell-based or functional assay

Row | EC50, NFκB-luciferase activation of HEK293/NFκB-luc/hIL17RA/hIL17RB/hAct1 cells [nM] | EC50, NFκB-luciferase activation of HEK293/NFκB-luc/hIL17RA/hIL17RB/hAct1 cells (first assay day) [nM] | EC50, NFκB-luciferase activation of HEK293/NFκB-luc/hIL17RA/hIL17RB/hAct1 cells (second assay day) [nM] | Binder
1 | 0.019 | – | – | monkey IL-25 expressed with a C-terminal myc-myc-hexahistidine tag (ligand) YSHWPSCCPSKGYPSEELLRWSTVPVPPLKPASLDFHSVSCRASEDGPLNSRAISPWRYELDRDLNRLPQDLYHARCLCPHCVSLQTGSHMDPRGNSELLYHNQTVFYRRPCHGKKGNHKGYCLERRLYRVSLACVCVRPRVMGEQKLISEEDLGGEQKLISEEDLHHHHHH
2 | 0.0084 | – | – | mouse IL-25 expressed with a C-terminal myc-myc-hexahistidine tag (ligand) VSLRIQEGCSHLPSCCPSKEQEPPEEWLKWSSASVSPPEPLSHTHHAESCRASKDGPLNSRAISPWSYELDRDLNRVPQDLYHARCLCPHCVSLQTGSHMDPLGNSVPLYHNQTVFYRRPCHGEEGTHRRYCLERRLYRVSLACVCVRPRVMAEQKLISEEDLGGEQKLISEEDLHHHHHH
3 | – | 0.0029 | 0.016 | human IL-25 expressed with a C-terminal myc-myc-hexahistidine tag (ligand) YSHWPSCCPSKGQDTSEELLRWSTVPVPPLEPARPNRHPESCRASEDGPLNSRAISPWRYELDRDLNRLPQDLYHARCLCPHCVSLQTGSHMDPRGNSELLYHNQTVFYRRPCHGEKGTHKGYCLERRLYRVSLACVCVRPRVMGEQKLISEEDLGGEQKLISEEDLHHHHHH
